This is an account of results in patent JP2006342173A (dated 2006).

The experiment concerns the target T1, ヒトCD40 (human CD40 expressed on cells) (human, UniProt P25942 21-277).
T1 construct: whole, on cells; also called Ramos細胞上のCD40; DC上のCD40
The experiment in a line: screening by ELISA (human CD40 mouse FC) and FACS (Ramos cells).

Residue numbers refer to the chain shown, from its start.

T1 sequence (P25942 21-277): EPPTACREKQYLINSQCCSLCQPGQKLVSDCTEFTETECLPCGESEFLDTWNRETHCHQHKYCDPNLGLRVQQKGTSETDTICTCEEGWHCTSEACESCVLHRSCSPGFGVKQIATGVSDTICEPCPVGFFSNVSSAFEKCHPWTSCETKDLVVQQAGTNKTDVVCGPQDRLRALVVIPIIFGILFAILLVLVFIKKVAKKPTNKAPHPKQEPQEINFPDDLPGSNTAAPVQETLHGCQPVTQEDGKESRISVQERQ

B1: 2105抗体 (antibody, V domains shown)
VH: EVQLVESGGGLVQPGRSLRLSCAASGFTFDDYAMHWVRQAPGKGLEWVSGISWNSGSLVHADSVKGRFTISRDNAKNSLYLQMNSLRAEDTALYYCARDRLFRGVRYYGMDVWGQGTTVTVSS
VL: EIVLTQSPATLSLSPGERATLSCRASQSVSSYLAWYQQKPGQAPRLLIYDASNRATGIPARFSGSGSGTDFTLTISSLEPEDFAVYYCQQRSHWLTFGGGTKVEIK
notes: Human agonistic anti-CD40 antibody, FERM BP-8024
Take B1: the binding result is listed as “binds”.

B2: KM281-1-10抗体 (antibody, V domains shown)
VH: QVQLQESGPGLVKPSETLSLTCTVSGGSISGYYWSWIRQPPGKGLEWIGYIYYSGSTNYNPSLKSRVTISVDTSKNQFSLKLNSVTAADTAVYYCARAPLHGDYKWFHPWGQGTLVTVSS
VL: not shown
notes: Human antagonistic anti-CD40 antibody, FERM BP-7579; Signal peptides predicted by Signal P
For B2, the binding result is listed as “binds”.

B3: F2-103抗体 (antibody, V domains shown)
VH: EVQLVESGGGLVQPGGSLRLSCAVSGFTFSTYWMHWVRQAPGKGLVWVSRINSDGSSTTYADSVKGRFTISRDNAKNTLYLQMNSLRAEDTAVYYCARDRVLWIGELSYYGMDVWGQGTTVTVSS
VL: DIQMTQSPSTLSASVGDRVTITCRASQSISNWLAWYQQKPGKAPKLLLYKASGLESGVPSRFSGSGSGTEFTLTINSLQPDDFATYYCQQSNSYSWTFGHGTKVEIK
notes: Human agonistic anti-CD40 antibody from hybridoma; plasmids ATCC PTA-3302 and PTA-3303; Signal peptides predicted by Signal P
Consider B3, for which the binding result is reported as “binds”.

B4: F5-77抗体 (antibody, V domains shown)
VH: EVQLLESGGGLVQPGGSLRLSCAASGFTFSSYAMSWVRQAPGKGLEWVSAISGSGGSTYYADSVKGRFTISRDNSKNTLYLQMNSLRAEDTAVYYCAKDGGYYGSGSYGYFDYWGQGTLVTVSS
VL: DIQMTQSPSSVSGSVGDRVTITCRASQGISSWLAWYQQKPGKAPKLLIYAGSSLQSGVPSRFSGSGFGTDFTLTISSLQPEDFATYYCQQASSFPRTFGQGTKVEIK
notes: Human agonistic anti-CD40 antibody from hybridoma; plasmids ATCC PTA-3304 and PTA-3305; Signal peptides predicted by Signal P
As for B4, the binding result is “binds”.

B5: 4D11抗体 (antibody, V domains shown)
VH: QLQLQESGPGLLKPSETLSLTCTVSGGSISSPGYYGGWIRQPPGKGLEWIGSIYKSGSTYHNPSLKSRVTISVDTSKNQFSLKLSSVTAADTAVYYCTRPVVRYFGWFDPWGQGTLVTVSS
VL: AIQLTQSPSSLSASVGDRVTITCRASQGISSALAWYQQKPGKAPKLLIYDASNLESGVPSRFSGSGSGTDFTLTISSLQPEDFATYYCQQFNSYPTFGQGTKVEIK
notes: Human antagonistic anti-CD40 antibody, FERM BP-7758; Signal peptides predicted by Signal P
For B5, the binding result is “binds”.

B6: 110抗体 (antibody, V domains shown)
VH: QVQLVESGGGVVQPGRSLRLSCAASGFTFSSYGMHWVRQAPGKGLEWVAVIWYDGSIKYYADSVKGRFTISRDNSKNTLYLQMNSLRAEDTAVYYCAREGYNILTGYFGYWGQGTLVTVSS
VL: VIWMTQSPSLLSASTGDRVTISCRMSQGISSDLAWYQQKPGKAPELLISAASTLQSGVPSRFSGSGSGTDFTLTISCLQSEDFATYYCQQYYSFPWTFGQGTKVEIK
notes: Human agonistic anti-CD40 antibody from hybridoma; Signal peptides predicted by Signal P
Turning to B6, the binding result is recorded as “binds”.

B7: 115抗体 (antibody, V domains shown)
VH: B6 VH with Y53N
VL: B6 VL
notes: as for B6
For B7, the binding result is “binds”.

B8: KM643-4-11抗体 (antibody, V domains shown)
VH: QVQLQQSGPGLVKPSQTLSFTCAISGDSVSSNSAAWNWIRQSPSRGLEWLGRTYYRSKWYKDYAVSVKSRITINPDTSKNQFSLQLNSVTPEDTAVYYCARGYYYGSGSYPYYYQMDVWGQGTTVTVSS
VL: EIVLTQSPATLSLSPGESATLSCRASQSVSSYLAWYQQKPGQAPRLLIYDASNRATGIPARFSGSGSGTDFTLTISSLEPEDFAVYYCQQRSNTFGGGTKVEIK
notes: as for B6
As for B8, the binding result is recorded as “binds”.
